Experimental data from patent US20240026407A1, “MODIFICATION OF SAPONINS” (GLAXOSMITHKLINE BIOLOGICALS SA, priority 2020, published 2024).

Experiments:
Format in all cases: biochemical, Quillaja saponaria
[1] = Experiment 6-1: screening of rhamnosidases for derhamnosylation of saponins in treated bark extract (2%), QS-17 2296 to QS-18 2150 (PAR %); details: TBE 2%, pH 7.5, 30 degC, 18 h; TIC peak area ratio percent of rhamnosylated starting saponin to derhamnosylated product, LCMS/MS; negative controls 4.876, 5.225
[2] = Experiment 6-1: screening of rhamnosidases for derhamnosylation of saponins in treated bark extract (2%), desglucosyl-QS-17 2134 to QS-21 1988 (PAR %); details: TBE 2%, pH 7.5, 30 degC, 18 h; TIC peak area ratio percent, LCMS/MS; negative controls 2.719, 2.158
[3] = Experiment 6-1: screening of rhamnosidases for derhamnosylation of saponins in treated bark extract (2%), QS-17 2310 to QS-18 2164 (PAR %); details: TBE 2%, pH 7.5, 30 degC, 18 h; TIC peak area ratio percent, LCMS/MS; negative controls 3.061, 2.429
[4] = Experiment 6-1: specificity of rhamnosidases towards other rhamnose residues (C3 saccharide rhamnose, C28 saccharide rhamnose); details: TBE 2%, pH 7.5, 30 degC, 18 h; LCMS/MS; negative controls 0.18, 0.17

B1: 1080 (protein, listed as Eisenbergiella massiliensis)
chain: MANWIWYPGDFEIYHGMCQNFDREERGFFWPAYWHIADCRHHVVFHASCRLEKETAFRVTAKGIGHVLVKWEEKAPSWFPEGQPFYQEKKYTIGEWISCPAKEIGIDVVIGNRTGLPCIYVEGEVIRSGKNWTVTDFAAPEVPVGWNDMYVRAQQDPQIFEYTQELCRPVSTERVNGGVLYDFGRELTADTLIKINGEERPDQVTLCYGESRTEALDTQLCYLKQVLEIPGKKDSVPAGCASGPEREADCGASPFGRWESGQRYHTKLRAFRYIFVPEGENASLVTVEALYKYVDFPKRSSFSCSDGLINRIWEVADTTFRLASGIFFLDGVKRDRWIWSGDAYQSYFINQYLFFDKDICKRTILALRGNDPVTEHINTIVDYSMYWIISLENYYNMSGDLDFIRMVYPRMESLLRYCMEQTDGQGFIYGREGDWIYIDWAELDKEGILCAEQQLLARSYEAVASVRRLLGLDAEEFDVRKEALLKNIRQFFWDEEKGAFIDSYQSGRRNVTRHANIFAVLFGYADEAETESILHKVLLNEEVAAITTPYFKFYELEALAKLGRFEVVMDTLKSYWGGMLERGADTFWEEYKPEQPEEEQYGMYGDKYGKSLCHAWGASPIYLLGRYCMGVRPTGTAYETFAVEPQLELFDSFSCSFPVNEGTVWMDWKDGVLDVYTDKDGGVLKAAGKEYTLERGKHVVVKGR
- QS-17 (PAR %) [1]: 4.792%
- Peak75 (PAR %) [2]: 2.434%
- Peak57 (PAR %) [3]: 2.882%
- ratio PP/QS-21 [4]: 0.17

B2: 1035 (protein, listed as Caulobacter segnis)
chain: MVKAYRPSLVLVLALAFGPAASAEPIWITHPAAPSAPTVVRFERDLTLARKPGHFPVRVSADNRFILLVNGRRVGAGPATSDLGHWRYATLDLAPYLTRGSNHLEAVVWNYVKPEEPIPDGLSPAQKNAAAFRNQRNQTGPVAQISARLGFWFSAPGAPELDSGPTWRVQLDSARSAAPVMGQVAGFYAAGPSEIVDARVPLAAPVAATPALAPGEPSPWALSADPLPQMSYRAVDPGLVARTNLDEAKAFPRQPVTIPARKTVKILLARPAMVAAYPTLRVTGGKDASIKLTYAEALIDAKGRKGLRSEVGDRTIRGLSDRFTADGGARAFAPLWWRTWRYLEIEVQTADQPLRLQGLDVAETDYPFGQVGKFVSDDPELNRIWDIGWRTARIDAHETYMDTAYYEQLQYVGDTRLQALISYAVSGDPRLATQAMDAFGASRALGGVTEGAYPSRTSNPIPPFSLLWIGMLHDYWSRHPDPEPARRHLARAREVLAWFDGYLGPDGLMRKTPGWSFVDWAVKDGRLLSRDAFPSYDAQGRSCLLSLAYLGALRDMTDLEAALGEPSLAGRDRSRAEAIAAAVRDQCWAPDRGLFADTPDKASFSQHTNALAVLYDVAAPKDAAAILDRTVGQAGIDAPTGMISTSYYYAWYLVRAFDHAGQADRYLSLLDTWRGLLALDYTTWPEERGNTRSDTHAWSAHPTADLLELVAGIRPDAPGYGRLRVEPHLGALRRLDAAAATPQGPVEVKYRRKGQRLVVEVRKPAGLSGVFVWRGQSHALLGARTRLDLPAGD
- QS-17 (PAR %) [1]: 4.825%
- Peak75 (PAR %) [2]: 2.427%
- Peak57 (PAR %) [3]: 2.987%
- ratio PP/QS-21 [4]: 0.17

B3: 1010 (protein, listed as Paenibacillus mucilaginosus)
chain: MEENRLWNARWIWHQSYPWTSDPGTHEMVWFRREFDVTDPHLAQLVVDISADSRYRLFLNGDSVSVGPCKGDRSTHYYETVDLSERLIAGTNVLAAQVLHFAPSGPHLLGVSGPLSIHRAVSGAMFLEGVLIEGNGHSQTLHSDEKWLCKKMPGFKLVPSPIIFFLGGFEDTDGSGLDHGWELPGYDDEGWTNAVIVCETGDKFGQLTPWQLAPRPIPPMREEPASFRGITKADDRAAIPGYEAMLRGGDTRSVRVEAGQSIWLELDAGELVTGYVTLKLRGGRESRIKLLYAESYEEPASNLHHRVKGIRDDAENGILLGEADHYTVAGVGIGESVERYEPFDFRTFRYLRLEAAAKDEPLEIVLLSYRDTGYPLNAQAAFSCSDPDYAALWELSLKTLRRCMHETYEDCPYYEQLQYTMDTRLQMMFTYAVSADDRLARRALFDYHSSALPSGMLQSRYPSEYRQVIPSFSLYWIHMLYEHYWHFGDRELIRRYVPTMTGVLGWFRRMLTPEGLVAPTPRAYWPYFDWCIDWENGTPPAHAKGPLTLLSQMLAAALQTASQIYEAVGWSDAAREAKADANAVNEALLRLCWRPERGLFADGPEVEEFSQHAQVWGVVCGAVQGEDAVRLLERTIEPQAEHMAQLSVPASYELFRMLSRHGLYGKASNVIDRWKAFLHLHLTTLPEVTDDNHPRSDCHAWSALPLSEFTGEILGVRPGAPGYSEIIVSPQPLQLSWAKGSAATRHGSVEVEWTLDEEAVFRMSGNGPVGIPLLVVLPNGKQVEFRHGGKFEASAKLRA
- QS-17 (PAR %) [1]: 4.796%
- Peak75 (PAR %) [2]: 2.559%
- Peak57 (PAR %) [3]: 2.845%
- ratio PP/QS-21 [4]: 0.18

B4: 996 (protein, listed as Opitutus terrae)
chain: MHRRFLAAILLGAPALLESAAAAPETPAAPPPAAAQPLAWPEVHRETKPWSRWWWFGNIADEKSVTAQLEACAAAGLGGLEITPIYGVRGYEDRFVPFLSPRWMELLRHTLVESRRLGLGIDLATGTGWPFGGPWLQPEDVAHTLAHRVYEIKPGERLGEPVRLTATGLVRVAGPRPVKLEELREPITANANLQELALDQVRFPKPMRLVSLMAFPLALAGVAPTPLDLTSRVRADGSLDWTAPADAGTWTLYALFAGPHGKMVERAAPGGEGFALDHFSSTALRAYLARFDAAFAEGHLLSDLPSAAGADSAPRLRAFFNDSYEVDDADGEANWTPRFLEEFQKRRGYDLRAHLPELLATTENDFSARVRSDYRETISDLLLDEFTNPWREWAHQHGALIRNQAHNSPANILDLYAASDIPEQEGNGFLAMKLASSAAHVSGKPLASAETATWLNEHFLTTLAELKQNTDEFLLAGINHVCYHGTALSPLDAAWPGFNFYASVELNPLNPFWRDFTALNAYVARAQSFLQSGTPDEDVLLYYNIHDRWAERGNGRMPHFGHGGRDPSGSLAATAAALHEAGVGFDYVSDRQLQKITPDRAIVVPQTTFMPEATLARLVELAAQGATILFVDHLPRSAPGLAGLNASGRFEQLLQKIQTQLAPSDVLSAAKLDGGQFLLGPGIRELLDRCPGIARESLRPFGLEFVRRRTDAGALYFLVNRSNQPIDRWIPLQSPAAAAALFDPMTGNAGLAAIHSSGPTGSASIPPAHSDGARASRAPTEIYLQLAPGESCVVQLHATPVAGPAWHYWQRAGEPHLLTGDWSVTFTAGGPALPAAAQLHALTSWTDFAGEAGRAFSGTAVYTRRFARPSGDAPAWELDLGTVGDSARVTLNGRELGVLIQPPWRVVIPANEWRDENALEIDVTNLAANRIADLDRRGASWKIFYNANFPARFRENVGPDRQFTAARWLPRNSGLLGPVKLTPLQKSDPTL
- QS-17 (PAR %) [1]: 4.778%
- Peak75 (PAR %) [2]: 2.221%
- Peak57 (PAR %) [3]: 3.190%
- ratio PP/QS-21 [4]: 0.16

B5: 1034 (protein, listed as Paenibacillus mucilaginosus)
chain: MSSTQTLRGRFDDPPAEYRAAPFWAWNDALREEEVLRQIGEMKEGGMGGFFIHSRDGLETEYMGTEWMKLVRAAVEEAEAQGMQAWLYDEDRWPSGFAGGLVQARGGDDYRAKGLTLEVVPAEKEGSGRLAERLADGAPVALFRAVIAERSLLSCTRLDLQVMFGSRMEAAAAAENTLLPPILEPQQEQHQDHETVYLLFRVEVSERSEWFNGEAPPDNLNPDTVRTFIELTYEAYEREVGGSFGSAVRGVFTDEPSIHDRHCRFTPGRAWLPWSGSFPAFYRERRGSDVLDTAPYLFFDGSLSPQARHDYWRTVTERFSEAYSGQIGEWCGSRGLAFTGHYLWENNLGTATRVCGAVMPNYRYQHVPGIDMLGEQTNETITVKQCTSVAHQYGRKVVLSETYGCTGWGFTFEGQRWVGDFQYVLGVNLRSQHLALYSIKGCRKRDYPPVFHYNTSWWKFSRVIEDYYARLSAVLTEGRPIRDVLVLHPSTTAWSMVGTGPYGFPARGKDRDVSAANRYGHEFNAFLRGLLGAHYDFDLGDEIILSEIGSVRQTEQTARLAVGMAEYRTVVLPEIRTMLRSTFLLLTGFLEAGGRVVAVGPPAELLEGRPAPELSRLYGHPGLTVVPDGAAAAAALESFLPRRVSIRHQAPQHTEPAEADKMLYMLQKADNRRVLFIVNNDREEEQQVTITLEGEGLLEEWNALTGEVTDVLVRRSQEGLLEFDASFGPADSKLYVLHTDRAPETGLNASPASEAPLLLVDPGTIRMELLQEPAGFTRTAPNALTLDRCSYRLRDGDWSGEMDVWQAQRAVREALGMRQVYGNGLEQRYRWVHEPHPGDGTPAAFRFDFEVTDVPEGEIHLVVESAGEYELGLNGNPVPGVPDGWFLDRSFDRVPLSGLRAGRNELVLSCRYHQRMEVEDLYLTGDFGVDEGRRITREPEKLQLGDWCLQGYPHYAGSMVYRFTVDGGLTPGGPAWLELGSFQAVTAEVRINRETAGHVPWRAANRLDISGRLRQGENLIEVEVMGSPRNLLGPFHHTSGDPSITSWSSFRKEGGDYSPAYRLRPYGLFGGIRLYRVQEQGGKGG
- QS-17 (PAR %) [1]: 4.827%
- Peak75 (PAR %) [2]: 2.389%
- Peak57 (PAR %) [3]: 3.034%
- ratio PP/QS-21 [4]: 0.17

B6: 1069 (protein, listed as Deltaproteobacteria bacterium)
chain: MSLHDRSWVWNPDWNESRKETSAGGFVHFRREIDLEKRPSRPIFISITADTRYKLYINSKFVHHGPVKGDSQVWYYDELDIQPYMKAGKNTIAVRVLRLYHGTRFGTSFPRMPLGGLRIQHIRDSNDPPIIFSIETNGSWKTAVDRSSFLPIIEDDMFLHIFEAVDRRNDCKLQWTSAKPHKIFNAFGLVSPWKLSPRQIPFANFRPAIFSTIHNIRSTSNDAEVVDWQACLLAKSSNRTPVRLAAGTIHHVELEASHHLTAFMSFLFERPENPGAEIKITYSECYEDVPDNPQFRQKADRRDTSKKLLGPYDTFILGGRIYEQEDPSSAYHESGEDMVIFAPFHFRTFRFIAIDIAVNSDSDLIFHGVQITRTKYPLDVLAQFSPGGRDVTLPVQKMWETSILTLENCMHDCYEDCPFYEQLQYAMDTRSSALFTYYLSGDDRLARQAITQTRNSFQPSIGLTASRAPCEHLQIIPNFSLFWICMVADHYLHYGDMAFTSQFLPVCDAVLDSFRRRIDPDLGLVRCYDTDDFWDFVDWTEAWKPRGIPPAGKRTGYQTFSSSLYAYTLNLIAPAVEEYGRKGVAEEYRQSAAEVAASIWQHCFDGQYFTDGLAGSALNSEYSQHNQVWAILSGAVIGDEARQLLSKTLSRHDLTTPSIAMSFYTLQAVSLVGGDLYDLHFNDFWAPWIEQLSNNVTTWVEDNVSQRSECHAWGSAPIYEFMAEVVGLRPLEPGWRSISFKPRLALFETMDSKVPIPIRGSSGMAVAHVRWGRKGDDIAGVTIELKKGAENLRIPITLSHESGEDEVVISPFARDVRIQ
- QS-17 (PAR %) [1]: 4.786%
- Peak75 (PAR %) [2]: 2.213%
- Peak57 (PAR %) [3]: 2.596%
- ratio PP/QS-21 [4]: 0.17
